We go through two molecules from article PMC6348830, “In Vivo Biokinetics of ^177Lu-OPS201 in Mice and Pigs as a Model for Predicting Human Dosimetry” (Contrast Media & Molecular Imaging, 2019).

The conditions of data set [1]: human, in vivo; cited from earlier work. On the procedure: The fast blood clearance of the OPS201 in the first phase (<56 h) for each species was in agreement with studies of the agonist. […] For humans, most likely because of the short observation period, the value was lower (0.5 h). For the late phase in pigs, our result (58 h) is also close to the results obtained in the human study with the agonist (43 h). Part of an ongoing phase 1 study with ^177Lu-OPS201 in patients with SSTR-posi ...

A further data set can be described thus: clinical. The arrangement: species or system patients (humans). The conditions noted are these: both sexes, human, in vivo, total radioactivity. The procedure: (§1) For analyzing the biokinetics of ^177Lu-labeled peptides in preclinical and clinical studies, the data of ^177Lu-OPS201 athymic nude Foxn1nu mice (28 females, weight: 26 ± 1 g, age: 8–9 weeks), Danish Landrace pigs (3 females-1 male, weight: 28 ± 2 kg, age: 3 months), and patients (3 females-1 male, weight: 61 ± 17 kg, age: 44–77 years) with administered activities of 0.19–0.27 MBq (mice, 0.017 µg of peptide), 97–113 MBq (pigs, 9 µg of peptide), and 850–1086 MBq (patients, 55–106 µg of peptide) were included. For pigs and patients, kidney protection was applied.
After administration of ^177Lu-OPS201, blood samples were taken up to 72 h for mice, up to 300 h for pigs, and up to 23 h for patients in order to measure the blood radioactivity contents by using the same well-type gamma counter (Packard Instruments). […] In order to convert the raw count values to blood uptake values per mL human blood in each time point, human blood data were quantified (in Bq/mL) retrospectively by using the same calibration factor as for the mouse study. […]
To quantify the amount of activity, the average percentage values corresponding to the injected radioactivity (A%) per organ as a function of time were calculated for the liver, right kidney, left kidney, and blood for each species via a manual VOI analysis (for pigs and patients) and via gamma counter (for mice). […]

A short description of another data set: in vivo. Details: species or system Danish Landrace pigs. The conditions noted are these: both sexes, Danish Landrace, pig, total radioactivity. The procedure: as §1
After administration of ^177Lu-OPS201, blood samples were taken up to 72 h for mice, up to 300 h for pigs, and up to 23 h for patients in order to measure the blood radioactivity contents by using the same well-type gamma counter (Packard Instruments). The human blood data were, originally, provided as relative values, normalized to the first blood sample immediately taken after injection. In order to convert the raw count values to blood uptake values per mL human blood in each time point, human blood data were quantified (in Bq/mL) retrospectively by using the same calibration factor as for the mouse study.
After injection, multiple whole body (WB) planar images and SPECT/CT scans were acquired at 0.5, 2, 3, 4, 50, 100, 150, and 250 h to quantify the uptake in the kidneys and liver. […]

Positions of bridges follow the written chain, without caps; N, C: chain ends. Non-standard residues stand in square brackets, D forms with d. Residues, ends and D or L forms follow the SMILES beside them. *: point of attachment. DOTA = O=C(O)CN1CCN(CC(=O)O)CCN(CC(=O)*)CCN(CC(=O)O)CC1; dPhe(4-NHCONH2) = NC(=O)Nc1ccc(C[C@@H](N)C(=O)O)cc1; Dihydroorotyl(S) = O=C1C[C@@H](C(=O)*)NC(=O)N1; Phe(4-Cl) = N[C@@H](Cc1ccc(Cl)cc1)C(=O)O; Phe(4-NH2) = Nc1ccc(C[C@H](N)C(=O)O)cc1

Consider `C[C@@H](O)[C@H](NC(=O)[C@@H]1CSSC[C@H](NC(=O)[C@@H](Cc2ccccc2)NC(=O)CN2CCN(CC(=O)[O-])CCN(CC(=O)[O-])CCN(CC(=O)[O-])CC2)C(=O)N[C@@H](Cc2ccc(O)cc2)C(=O)N[C@H](Cc2c[nH]c3ccccc23)C(=O)N[C@@H](CCCCN)C(=O)N[C@@H]([C@@H](C)O)C(=O)N1)C(=O)O.[177Lu+3]` [177Lu-octreotate, DOTA-[Tyr3]octreotate], for which, in data set [1], the “half-life of late phase, blood” value is 43 h and the “mean effective half-life of first phase, blood” value was 1.6 h.
As for `C[C@@H](O)[C@@H]1NC(=O)[C@H](CCCCN)NC(=O)[C@@H](Cc2ccc(NC(N)=O)cc2)NC(=O)[C@H](Cc2ccc(NC(=O)[C@@H]3CC(=O)NC(=O)N3)cc2)NC(=O)[C@H](NC(=O)[C@H](Cc2ccc(Cl)cc2)NC(=O)CN2CCN(CC(=O)O)CCN(CC(=O)O)CCN(CC(=O)O)CC2)CSSC[C@@H](C(=O)N[C@H](Cc2ccc(O)cc2)C(N)=O)NC1=O` [177Lu-OPS201, metal not drawn] ({DOTA}-[Phe(4-Cl)][dC][Phe(4-NH2)](Dihydroorotyl(S))[dPhe(4-NHCONH2)]KTC[dY]-NH2; disulfide 2-7), the tissue uptake dose at 10 min in “clinical” and in “in vivo” was under 5 %ID in each case.
